What was measured:
Assay type in all cases: cell-based, human
[1] = system: MMP-1 mRNA; test: MMP-1 mRNA by real-time RT-PCR in transiently transfected NIH/3T3 cells; settings: NIH/3T3 cells co-transfected with pCMV-MMP-1 and peGFP; 48 hours after transfection; normalized to eGFP mRNA; P=0.015
Method: (§1) Transfection of NIH/3T3 and MDA-231 Cells. NIH/3T3 cells were transiently transfected with LIPOFECTAMINE™ 2000 (INVITROGEN™, Carlsbad, Calif.) along with 0.5 μg peGFP, 0.5 μg pCMV-MMP-1, and 2 μg PSUPER™-MMP-1 shRNA or PSUPER™ with no insert. Transfection efficiency was monitored using eGFP signal. Total cellular RNA was harvested 48 hours after transfection and analyzed for MMP-1 mRNA by real-time RT-PCR. MDA-231 cells were stably transfected in triplicate with LIPOFECTAMINE™ 2000 (INVITROGEN™, Carlsbad, Calif.) and 2 μg of the PSUPER™.Retro.Neo.GFP plasmid containing the MMP-1 shRNA, the scrambled sequence or just the empty vector. Stable cell lines were selected by growth in the presence of 1 mg/mL G418 (STRATAGENE®, La Jolla, Calif.). Individual, stable cell lines were isolated with cloning disks according to the manufacturer's instructions (PGC Scientifics, Frederick, Md.).
(§2) RNA Isolation and Real-Time RT-PCR.
To test the efficacy of the shRNA inhibition of MMP-1 expression, shRNA composed of SEQ ID NO:1 and SEQ ID NO:2 was cloned it into the PSUPER™ shRNA vector. Two PSUPER™ plasmids were used; one with the MMP-1 shRNA sequence to block MMP-1 gene expression, and one with only the plasmid vector. […]

[2] = system: interferon-responsive genes; test: Interferon response RT-PCR assay; settings: pooled stable MDA-231 cell lines
Method: Interferon Response RT-PCR Assay. RNA pooled from MDA-231 ells containing empty vector or the MMP-1 shRNA were reverse-transcribed with M-MLV reverse transcriptase (INVITROGEN™) according to the manufacturer's instructions. Briefly, 3 μg of RNA, 99 ng random hexamers, and 10 nmoles of dNTP were combined to a total volume of 12 μL. The mixture was incubated at 65° C. for 5 minutes and cooled to 4° C. Four μL of 5× […], 2 μL of 0.1 M DTT, and 1 μL of RNase inhibitor A (40 U/μL) were then added to the reaction and it was incubated at 37° C. for 2 minutes. One μL of M-MLV reverse transcriptase was added to the reaction and incubated at 25° C. for 10 minutes, 37° C. for 50 minutes and 70° C. for 15 minutes. The expression levels of 11 interferon-responsive genes and GAPDH were then estimated using semi-quantitative PCR and the human interferon-response MULTIGENE-12™ RT-PCR Profiling Kit (SuperArray Bioscience Co., Frederick, Md.).
To determine whether the MMP-1 shRNA was producing a shRNA-associated interferon response in the stable cell lines, the expression levels of 11 interferon-responsive genes was compared between pools of stable cell lines (Bridge, et al. (2003) Nat. Genet. 34:263-4).

[3] = system: MMP-1 protein; test: ELISA for MMP-1 protein in serum-free medium of stable MDA-231 cells; settings: for ng of MMP-1 protein per μg of total protein: average ± S.D.
Method: ELISA for MMP-1 Protein. MMP-1 protein in serum-free culture medium of stably transfected MDA-231 cells was quantified with the human MMP-1 BIOTRAK™ ELISA system that measures both latent and active enzyme (Amersham). Cells were grown in six-well culture dishes with 1 mL of serum-free medium, and after 24 hours of incubation, 100 μL of a 1:30 dilution of the medium was used for the ELISA assays. The cells remaining in the wells were lysed with 350 μL passive lysis buffer (PROMEGA®, Madison, Wis.), and 70 μl was used in a Bradford assay (BIO-RAD®, Hercules, Calif.) to determine the total protein content. The ng of MMP-1 protein from the ELISA results was normalized to μg total protein.
(§3) After initial neomycin selection and isolation of individual stable cell lines, MMP-1 mRNA and protein levels were determined using quantitative RT-PCR (qRT-PCR) and ELISA. MMP-1 mRNA levels were measured in RNA harvested from stably transfected cell lines after a 24 hour incubation in serum-free medium and were normalized to GAPDH mRNA levels. MMP-1 protein levels were measured in the serum-free media of the cell lines after 24 hours of incubation and were normalized to total protein content of the cells. The ELISA measured total (active and zymogen) forms of MMP-1 protein. […] To control for differences introduced into the cell lines during selection, these three individual cell lines for each group were pooled, and all subsequent experiments were performed on pooled cells.

[4] = system: MMP-2 mRNA; test: Specificity qRT-PCR, MMP-2 mRNA in stable MDA-231 cells; settings: stable MDA-231 cell lines, 24 hour serum-free; group average ± S.D.; P=0.3 vs empty vector
From the text: (§4) RNA Isolation and Real-Time RT-PCR. […] Real-Time PCR Primer Sequences. […] ID NO:7; MMP-1 reverse [NT] ID NO:8; MMP-2 forward [NT] ID NO:9; MMP-2 reverse [NT] ID NO:10; MMP-9 forward [NT] ID NO:11; MMP-9 reverse [NT] ID NO:12; MMP-13 forward [NT], SEQ ID NO:13; MMP-13 reverse [NT] ID NO:14; MMP-14 forward [NT] ID NO:15; MMP-14 reverse [NT] ID NO:16; GAPDH forward [NT] ID NO:17; GAPDH reverse [NT] ID NO:18; eGFP forward [NT] ID NO:19; eGFP reverse [NT] ID NO:20. Real-Time PCR Standards.

[5] = system: MMP-1 mRNA; test: MMP-1 mRNA by qRT-PCR in stably transfected MDA-231 cell lines; settings: for Copies of MMP-1 mRNA per pg GAPDH mRNA: average ± S.D.
Method: as §1, §2, §3

[6] = system: MT1-MMP (MMP-14) mRNA; test: Specificity qRT-PCR, MT1-MMP (MMP-14) mRNA in stable MDA-231 cells; settings: stable MDA-231 cell lines, 24 hour serum-free; group average ± S.D.; P=0.4 vs empty vector
From the text: as §4

B1: MMP-1 shRNA: Vector-expressed small hairpin RNA, SEQ ID NO:1 (sense) and SEQ ID NO:2 (antisense), specific to bases 234-252 of MMP-1 mRNA (nucleic acid)
sense: GATCCCCACCAGATGCTGAAACCCTGTTCAAGAGACAGGGTTTCAGCATCTGGTTTTTTGGAAA
antisense: AGCTTTTCCAAAAAACCAGATGCTGAAACCCTGTCTCTTGAACAGGGTTTCAGCATCTGGTGGG
modifications: the letters are possibly those of the target site
[1]
  MMP-1 mRNA levels lower than empty vector: 73%
[2]
  interferon response overall (11 interferon-responsive genes): no consistent upregulation of interferon-responsive gene expression
[2]; semi-quantitative RT-PCR
  increase in expression of MxA and GBP1 compared to empty vector cell lines: ~50%
[3]; Group of cell lines D1, Y2, Y7, P=0.002 vs empty vector
  ng of MMP-1 protein per μg of total protein: 0.46 ± 0.04 ng per μg of total protein
[3]; MDA-231 cell line D1
  ng of MMP-1 protein per μg of total protein: 0.49 ± 0.03 ng per μg of total protein
[3]; MDA-231 cell line Y2
  ng of MMP-1 protein per μg of total protein: 0.47 ± 0.01 ng per μg of total protein
[3]; MDA-231 cell line Y7
  ng of MMP-1 protein per μg of total protein: 0.42 ± 0.04 ng per μg of total protein
[3]; three stable MDA-231 cell lines, 24 hour serum-free medium
  reduction in MMP-1 protein levels compared to empty vector cell lines: greater than 90%
[4]
  MMP-2 mRNA level: 8.8 ± 7.8 copies of the target gene/pg GAPDH
[5]; Group of cell lines D1, Y2, Y7, P=0.004 vs empty vector
  Copies of MMP-1 mRNA per pg GAPDH mRNA: 6200 ± 3200 copies per pg GAPDH mRNA
[5]; MDA-231 cell line D1
  Copies of MMP-1 mRNA per pg GAPDH mRNA: 8900 ± 3600 copies per pg GAPDH mRNA
[5]; MDA-231 cell line Y2
  Copies of MMP-1 mRNA per pg GAPDH mRNA: 4600 ± 2500 copies per pg GAPDH mRNA
[5]; MDA-231 cell line Y7
  Copies of MMP-1 mRNA per pg GAPDH mRNA: 5000 ± 2400 copies per pg GAPDH mRNA
[5]; three stable MDA-231 cell lines, 24 hour serum-free
  reduction in MMP-1 mRNA levels compared to empty vector cell lines: greater than 90%
[6]
  MT1-MMP mRNA level: 107000 ± 46000 copies of the target gene/pg GAPDH

From patent US7790697B2, “Compositions and methods for inhibiting the synthesis or expression of MMP-1” (Trustees of Dartmouth College, priority 2004, dated 2010)
